± gives the standard deviation of the averaged measurements.
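Further: PSI is a weighted mean of sequencing reads over stability bins, variants kept only with over 10 reads, mCherry proximal and sfGFP distal, peptide attached via GGGS linker.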

The test system of this data set is Saccharomyces cerevisiae. Description: protein stability index of tFT-peptide fusion (C-terminal peptide) (PSI (0-1 scale)); higher = more stable (slower turnover). The note with it: genetic background: wild type; temperature: 30 C.
Turning to RLLFPTLTAYLL, the protein stability index came out at 0.63 ± 0.029.
Next, RLLPAPPPPTRP: 0.693 ± 0.036; RLLRLLTALPPL: 0.6387 ± 0.0026; RLLVGFLSPFSC: 0.713 ± 0.031.
Next, RLPASGTPAYSE: 0.67 ± 0.02.
Consider RLPAVPSHPGLL, for which the protein stability index is 0.729 ± 0.037.
For the sequence RLPFLPPPPCPP, the protein stability index came to 0.716 ± 0.046.
Next, RLPHCLRPPLSP: 0.669 ± 0.069; RLPLYAIPPFPP: 0.636 ± 0.0091; RLRCRYLSSTYY: 0.712 ± 0.0078.
As for RLRDMPRDLTFW, the protein stability index came out at 0.706 ± 0.12.
As for RLRGGVPGRTVG, the figure is 0.68 ± 0.078; as for RLRPGGHPCVFF, 0.66 ± 0.041.
As for RLRPRHPRLLRS, the figure is 0.735 ± 0.034; as for RLSPLTLPFCTS, 0.645 ± 0.06; as for RLSPPGFRLGLF, 0.517 ± 0.029.
In the case of RLSRPPRIPRSQ, the protein stability index is 0.654 ± 0.0087.
In turn, RLTLAFQKRSPP yielded a protein stability index of 0.668 ± 0.1.
Next, RLTRRSCLFSIT: 0.785 ± 0.056; RLVAGETWAMSR: 0.674 ± 0.0045.
The sequence RMDIRVWATFCG returned a protein stability index of 0.705 ± 0.11.
The sequence RMEGCRLSLGVP yielded a protein stability index of 0.63 ± 0.075.
RMGQQISSVRLF had a protein stability index of 0.679 ± 0.0082.
Next, RMKKKKNKARDI: 0.729 ± 0.045; RMRTGTKCLSAG: 0.705 ± 0.17.
Next, RNCSSALPPPPS: 0.7154 ± 0.0028.
As for RNERNAKAKNEK, the figure is 0.649 ± 0.012; as for RNHHPHHVPTSR, 0.667 ± 0.03; as for RNNKLGIRKSFL, 0.69 ± 0.035.
Consider RNRGPAIRVRRK, for which the protein stability index stood at 0.635 ± 0.089.
Next, RNTPTATHHTTG: 0.681 ± 0.026; RNVFVPFMRGSP: 0.737 ± 0.077.
Next, RPAFPIPSLYPS: 0.725 ± 0.11.
As for RPAIPPATPPPP, the protein stability index was found to be 0.649 ± 0.027.
The sequence RPALRPSPPLSP yielded a protein stability index of 0.682 ± 0.056.
Next, RPCPGPLPPPPP: 0.662 ± 0.013; RPDSGFPLRGSS: 0.75 ± 0.098.
Turning to RPFSAPLCLLPS, the protein stability index turned out to be 0.7 ± 0.024.
As for RPFSMGSNNIIR, the figure is 0.7 ± 0.022; as for RPGRSDRCLRWS, 0.673 ± 0.017; as for RPGWSRGREAVA, 0.735 ± 0.14.
Next, RPHEAPTPGPVR: 0.646 ± 0.013; RPHVLAHSLLLS: 0.584 ± 0.011; RPLLVPVSSTPP: 0.716 ± 0.045.
Next, RPLYPGSKVQLL: 0.691 ± 0.024; RPNQNAFACMSP: 0.702 ± 0.026; RPPPLLSPPSPP: 0.718 ± 0.026.
In turn, RPPPPASPPSAP returned a protein stability index of 0.588 ± 0.076.
Next, RPPPPSPRPTRR: 0.755 ± 0.032; RPPRNLDPSVSI: 0.646 ± 0.13; RPPSPPLPPPLS: 0.6906 ± 0.0013.
As for RPRLQNLSRSNV, the figure is 0.74 ± 0.074; as for RPSHSPAFSAFF, 0.681 ± 0.024.
In turn, RPSLPPSPLLRP came in with a protein stability index of 0.729 ± 0.0049.
Next, RPSPLPALASSL: 0.65 ± 0.037.
Next, RPSPPPLRPFVL: 0.576 ± 0.025; RPSTRARPKPTP: 0.693 ± 0.0086; RPTLPGGSPYYS: 0.75 ± 0.05.
As for RPTTPKCSSPKP, the figure is 0.753 ± 0.11.
Consider RPTTTQPPPTAS, for which the protein stability index was found to be 0.62 ± 0.022.
The sequence RPVPPPLPSPPP displayed a protein stability index of 0.702 ± 0.016.
As for RPVSALESPQAG, the protein stability index came out at 0.727 ± 0.059.
Next, RQCAACLGNPST: 0.665 ± 0.1.
Next, RQFRKKNTLKSE: 0.65 ± 0.1; RQGGTMVRLLGY: 0.651 ± 0.089; RQIPAQAVKHVL: 0.588 ± 0.02.
As for RQKEVSISYCWI, the figure is 0.646 ± 0.12; as for RQLSSFSDRSGS, 0.715 ± 0.022; as for RQSITIAQPGRP, 0.643 ± 0.014.
Consider RQSREGKANRRW, for which the protein stability index was determined as 0.742 ± 0.049.
As to RQVSRLFQGKKN, the protein stability index came to 0.707 ± 0.03.
As for RRAESRNEKQHS, the figure is 0.687 ± 0.017; as for RRAGHYHYSVRL, 0.704 ± 0.053.
RRAVLDSPSRRY displayed a protein stability index of 0.786 ± 0.031.
Next, RRDIIMTKKTLH: 0.658 ± 0.069; RRGRNGGKADLR: 0.657 ± 0.0073.
As for RRGTEGLGGGVG, the figure is 0.6265 ± 0.0052.
As for RRHNPARSRARG, the figure is 0.686 ± 0.053.
For the sequence RRIFTLIARRLW, the protein stability index worked out at 0.672 ± 0.013.
As for RRKSEYAYNTKN, the figure is 0.565 ± 0.036; as for RRLRWQNKIIGI, 0.868 ± 0.13.
Next, RRLVGEEGRTHV: 0.638 ± 0.05; RRNESHAGGRGP: 0.778 ± 0.07.
As for RRPAQDAEPIQP, the figure is 0.661 ± 0.067.
In turn, RRRGTYTYSLLL displayed a protein stability index of 0.73 ± 0.014.
As for RRRKGTKNMQSK, the figure is 0.727 ± 0.061; as for RRRMVYPLPPTL, 0.641 ± 0.052.
Next, RRRPSPKASILS: 0.719 ± 0.011; RRRSGAPVMRGS: 0.645 ± 0.074; RRSASRQFLLNP: 0.73264 ± 0.00024.
As for RRSENHTEHKGD, the figure is 0.712 ± 0.032; as for RRSLKIQKNMKR, 0.686 ± 0.083; as for RRSPYLPRILTP, 0.661 ± 0.023.
As for RRSVSSRGCLFR, the protein stability index worked out at 0.7 ± 0.008.
Next, RRTGTFSGLAGL: 0.696 ± 0.0071; RRTYERRVATSR: 0.691 ± 0.031.
As for RRVDVRKGRLTP, the figure is 0.753 ± 0.096; as for RRVKRGGARKEA, 0.654 ± 0.019; as for RRVRTTKKGLTI, 0.7266 ± 0.0036.
RRYWVLSTVPVL: the protein stability index turned out to be 0.615 ± 0.028.
Next, RSCAGGVGAVFF: 0.758 ± 0.055.
In turn, RSCFLSLFFFGF yielded a protein stability index of 0.653 ± 0.036.
As for RSEIKKPIVIKT, the figure is 0.576 ± 0.045.
In turn, RSFGRVVSCSGC had a protein stability index of 0.6993 ± 0.0056.
Next, RSGGDGCRALSV: 0.708 ± 0.064; RSGSVGGMECHV: 0.7 ± 0.18; RSHPPPPVSRSP: 0.651 ± 0.045.
Consider RSHPRQSGLRTA, for which the protein stability index was found to be 0.652 ± 0.039.
As for RSKDEKNKIGYK, the figure is 0.683 ± 0.044; as for RSPKGKKRVGKW, 0.714 ± 0.039; as for RSPPPFLSIFPL, 0.745 ± 0.01.
As for RSPSFLRSFPAL, the figure is 0.686 ± 0.016; as for RSRGSTKLKNLI, 0.817 ± 0.056.
As for RSRKKKERWKTE, the figure is 0.707 ± 0.015.
RSRRPALVLSGN displayed a protein stability index of 0.729 ± 0.011.
As for RSRRRFPPPPPI, the figure is 0.672 ± 0.062.

The values are drawn from the supplement of paper PMC10724198.
